# Results published in PMC4122979, “The N-terminal portion of autoinhibitory element modulates human endothelial nitric-oxide synthase activity through coordinated controls of phosphorylation at Thr^495 and Ser^1177” (Bioscience Reports, 2014).
# Target: CaM (calmodulin) (UniProt P0DP23)
# Test: CaM mobility shift on non-denaturing PAGE
# Conditions: reference: unmodified T495 peptide; sites T495
substance,measurement,value
"eNOS (endothelial nitric-oxide synthase; heNOS) CaM-binding domain (CBD), 491-510 (from UniProt P29474) pT495 peptide",binding against the reference,weaker
